Measurements: the supplement of paper PMC7877785
± gives the uncertainty stated by the source.

Test: self-splicing fitness, log relative to wild type (ln ratio); higher = more splicing; Tetrahymena group I intron in knt gene, E. coli kanamycin selection, DiMSum; sequences stand for … in CUCUCU…GGAGGGAAAAGUUAUCAGGCAUGCACCUGGUAGCUAGUCUUUAAACCAAUAGAUUGCAUCGGUUUAAAAGGCAAGACCGUCAAAUUGCGGGAAAGGGGUCAACAGCCGUUCAGUACCAAGUCUCAGGGGAAACUUUGAGAUGGCCUUGCAAAGGGUAUGGUAAUAAGCUGACGGACAUGGUCCUAACCACGCAGCCAAGUCCUAAGUCAACAGAUCUUCUGUUGAUAUGGAUGCAGUUCACAGACUAAAUGUCGGUCGGGGAAGAUGUAUUCUUCUCAUAAGAUAUAGUCGGACCUCUCCUUAAUGGGAGCUAGCGGAUGAAGUGAUGCAACACUGGAGCCGCUGGGAACUAAUUUGUAUGCGAAAGUAUAUUGAUUAGUUUUGGAGUACUCGUGGUCG
Method in brief: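 DiMSum derived fitness as the error-weighted combination of fold changes across replicates, kanamycin versus no kanamycin, normalised to wild type. E. coli BL21(DE3) held the library, which randomised all eight P1ex-region intron nucleotides within the knt kanamycin-resistance gene on pET-22b(+). Six replicate transformations grew overnight at 37°C or 30°C on LB agar with or without 25 μg/mL kanamycin, also containing 100 μg/mL carbenicillin, 50 μM IPTG and 0.2% rhamnose, and pooled colonies were amplicon-sequenced on an Illumina HiSeq 2500.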

| Sequence | self-splicing fitness (ln) (30 °C) | self-splicing fitness (ln) (37 °C) |
| --- | --- | --- |
| UGUCAGCAAUAUUACGCAAA | -0.635 ± 0.11 | -0.0477 ± 0.12 |
| UGUCAGCAAUAUUACGCAGA | -2.8 ± 0.25 | -2.38 ± 0.5 |
| UGUCAGCAAUAUUACGCGCA | -1.67 ± 0.13 | -0.608 ± 0.14 |
| UGUCAGCAAUAUUACGCGGU | -3.09 ± 0.26 | -2.2 ± 0.29 |
| UGUCAGCAAUAUUACGCGUU | -1.16 ± 0.072 | -0.631 ± 0.083 |
| UGUCAGCAAUAUUACGCUAA | -0.476 ± 0.071 | 0.355 ± 0.094 |
| UGUCAGCAAUAUUACGCUGG | -4.05 ± 0.39 | -2.19 ± 0.34 |
| UGUCAGCAAUAUUACGCUUA | -0.0584 ± 0.077 | 0.408 ± 0.11 |
| UGUCAGCAAUAUUACGGAUC | -1.89 ± 0.08 | -0.775 ± 0.075 |
| UGUCAGCAAUAUUACGGCCG | -0.69 ± 0.14 | -0.658 ± 0.17 |
| UGUCAGCAAUAUUACGGGCU | -1.7 ± 0.086 | -1.4 ± 0.12 |
| UGUCAGCAAUAUUACGGUAA | -0.649 ± 0.087 | 0.294 ± 0.1 |
| UGUCAGCAAUAUUACGGUAU | -2.46 ± 0.14 | -1.11 ± 0.12 |
| UGUCAGCAAUAUUACGGUCA | -0.432 ± 0.071 | 0.606 ± 0.091 |
| UGUCAGCAAUAUUACGGUCC | -0.381 ± 0.15 | -0.567 ± 0.19 |
| UGUCAGCAAUAUUACGGUCU | -0.529 ± 0.063 | 0.201 ± 0.083 |
| UGUCAGCAAUAUUACGGUUA | -0.384 ± 0.089 | 0.239 ± 0.087 |
| UGUCAGCAAUAUUACGUACU | -0.114 ± 0.058 | 0.497 ± 0.078 |
| UGUCAGCAAUAUUACGUAUC | -2.16 ± 0.2 | -1.68 ± 0.29 |
| UGUGAGCAAUAUUACGAAGU | -1.67 ± 0.32 |  |

| Sequence | self-splicing fitness (ln) (30 °C) | self-splicing fitness (ln) (37 °C) |
| --- | --- | --- |
| UGUGAGCAAUAUUACGAAUG | -2.16 ± 0.1 | -0.688 ± 0.097 |
| UGUGAGCAAUAUUACGAUCG | -1.36 ± 0.1 | 0.456 ± 0.17 |
| UGUGAGCAAUAUUACGAUUU |  | -2.06 ± 0.27 |
| UGUGAGCAAUAUUACGCAGG | -3.81 ± 0.42 | -1.39 ± 0.27 |
| UGUGAGCAAUAUUACGCCGC | -2.82 ± 0.34 | -1.2 ± 0.48 |
| UGUGAGCAAUAUUACGCGGG |  | -2.31 ± 0.26 |
| UGUGAGCAAUAUUACGCUCU | -1.26 ± 0.3 |  |
| UGUGAGCAAUAUUACGCUGU | -3.47 ± 0.18 | -2.66 ± 0.19 |
| UGUGAGCAAUAUUACGCUUA | -2.52 ± 0.27 | -2.85 ± 0.27 |
| UGUGAGCAAUAUUACGGAUU |  | -1.59 ± 0.34 |
| UGUGAGCAAUAUUACGGCAU | -3.25 ± 0.28 | -1.53 ± 0.15 |
| UGUGAGCAAUAUUACGGGUG | -2.6 ± 0.14 | -1.9 ± 0.13 |
| UGUGAGCAAUAUUACGGUAC | -3.38 ± 0.28 | -2.3 ± 0.29 |
| UGUGAGCAAUAUUACGGUCC | -3.6 ± 0.48 | -2.09 ± 0.42 |
| UGUGAGCAAUAUUACGUACA | -1.04 ± 0.091 | -0.41 ± 0.1 |
| UGUGAGCAAUAUUACGUCUC | -1.96 ± 0.25 |  |
| UGUGAGCAAUAUUACGUGAU | -5.21 ± 0.36 |  |
| UGUGAGCAAUAUUACGUUCA | -3.06 ± 0.31 | -1.56 ± 0.39 |
| UGUUAGCAAUAUUACGAAGG | -1.88 ± 0.16 | -2.16 ± 0.27 |
| UGUUAGCAAUAUUACGACAA | -0.407 ± 0.18 | 0.123 ± 0.16 |
